Experimental data reported in the supplement of paper PMC9170038.

Tested on: MS2 coat protein
Experiment: apparent KD of MS2 coat protein; designed switch direction (-1 OFF switch, 1 ON switch): -1; higher = weaker reporter binding
In short: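 Each step of the titration lasted 0.8–1.5 h at the lowest concentration and 10–20 min at the highest. The protein, SNAP-549-labelled MS2 coat protein, went from 0.7 or 1.5 nM doubling to 3 µM over RNA switches transcribed on Illumina chips by stalled E. coli RNA polymerase. Normalised cluster fluorescence was curve-fitted, and the per-design median over clusters is given as apparent KD.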

[1] = Eterna round: R95, input ligand: microRNA oligo, concentration not stated
[2] = input ligand: microRNA oligo, concentration not stated
[3] = Eterna round: R95, input ligand: FMN 200 uM
[4] = Eterna round: R95, input ligand: none

Row | Sequence | apparent KD of MS2 coat protein (input ligand: FMN 200 uM) [nM] | apparent KD of MS2 coat protein (input ligand: none) [nM] | apparent KD of MS2 coat protein [1] [nM] | apparent KD of MS2 coat protein [2] [nM] | apparent KD of MS2 coat protein [3] [nM] | apparent KD of MS2 coat protein [4] [nM]
1 | UUGCGGCAAGGAUAUACAUGAGGAUCACCCAUGUAGUAUUUGGUGCUGGCGAGCUGGUGUAGAAGGUGCACGCA [EX3 B.3] (Eterna round: R97, puzzle: Exclusion 3) | 21.2 | 16.1 |  |  |  | 
2 | CUUUUGUGAGGAUAUCAGUAGUAAAAAAAUAAAAUUACUAUUGAGAAGGCACAUGAGGAUCACCCAUGUUCCUC [salish99_ex4_r3_029] (puzzle: Exclusion 4) |  |  | 36.4 |  |  | 
3 | UUGAUGUGAGGAUAUAUAUGGUGGUUUUUUUAUUUUUUAUUACUUGAGGAUCACCCAAGUAGAAGGCGCUACGU [JR_Ex2_Sub069] (Eterna round: R97, puzzle: Exclusion 2) | 29.4 | 39.3 |  |  |  | 
4 | ACAAGCUUAAUCUGUAUGAACAUGAGGAUCACCCAUGUAAAAGGGAAUACUUUUGGGUUUUUUAUAGCUCGUCUUAU [JR_STOV1_Sub019] (Eterna round: R97, puzzle: Sensor, turn-off variant 1) | 52 | 49.5 |  |  |  | 
5 | CCCUCACUUGAGGAUCACCCAAGUCAGGAUAUCUCCCACCCGGCAACAACCGGGUGCCAGAGAAGGGACUCAAA [Xemaques] (Eterna round: R97, puzzle: Exclusion 1) | 17.9 | 17 |  |  |  | 
6 | GUACUGACAGGAUAUACAUGAGGAUCACCCAUGUCCUUAAGCUGACAAAAGUCAGCGAGUAGAAGGGUCUGUAC [Omei Ex3 Model Bachelor's Dilema v4] (Eterna round: R97, puzzle: Exclusion 3) | 467 | 71.9 |  |  |  | 
7 | UAUAUAUAGUAAGGAUAUGUAUUAAGUUUAUAAACAGAAGGUACUGACAUGAGGAUCACCCAUGUUUUAGUGUGGGCAUGUAGA [JMF's solution 76] (Eterna round: R96, puzzle: Exclusion NG 1) | 122 | 78.6 |  | 52.6 |  | 
8 | UCCUCACUUGAGGAUCACCCAAGUCAGGAUAUUCACUGAACUGCGUAACAGUUCGGCCGAAGAAGGGAUUCGGG [Veatorma] (Eterna round: R97, puzzle: Exclusion 1) | 259 | 75 |  |  |  | 
9 | GAAUAGAGAGGAUAUGCGAAGUAGGUAGUACGAUAUAUCUGACAUGAGGAUCACCCAUGUAGAAGGCUCAGAUC [EX2 #5] (Eterna round: R97, puzzle: Exclusion 2) | 34.4 | 40.3 |  |  |  | 
10 | ACAUGAGGAUCACCCAUGUCGAGUACAUGAGGAUCACCCAUGUAGGAUAUGGUUCGCUUUGCGUGCUAGAAGGAUAUGUGAUGA [salish99_ExNG3_r04_512] (Eterna round: R96, puzzle: Exclusion NG 3) | 488 | 326 |  | 229 |  | 
11 | UUUUUCGAACAAGCUUCGUACAUGAGGAUCACCCAUGUUGGUAGAUUUGAGUAGGUUUGGAUGUAAGCUCGUCUUAU [JR_SV3TOV1_Sub082] (puzzle: Sensor v3, turn-off variant 1) |  |  | 313 |  | 98.7 | 129
12 | AGUGGGCUAGGAUAUCGAUGAACUCACAUGAGGAUCACCCAUGUGUCUUCGGUGGGCGCGCGAGAAGGAGUGAGAU [Belaange] (puzzle: Exclusion 5) |  |  | 26.9 |  | 63.6 | 37.9
13 | AAGUACCGUCACGAUAGUGAUGGUACAGCAAGCAAGUGAACAUGAGGAUCACCCAUGUCCUCAAUUGCUCGUCUUAU [Sensor 3 - 72] (puzzle: Sensor v3, turn-off variant 2) |  |  | 55.5 |  | 25 | 24.1
14 | GUCCGGCAUGUAGGAUAUGGAUCCGAUUAGGAUUUAGAAGGACAUGAGGAUCACCCAUGUACAUGUAAUUAGUCAUUACCGGAC [EXclNG1-LROPPY02] (Eterna round: R96, puzzle: Exclusion NG 1) | 40.2 | 22.2 |  | 17.8 |  | 
15 | AGGUGACAUGAGGAUCACCCAUGUGAGGAUAUCUGGAUACUCUUUAUUUUAGAUAUCCAGAGAAGGCACACCCU [Ex1-3: 8Z] (puzzle: Exclusion 1) |  |  | 235 |  |  | 
16 | CCCGGGUUAGGAUAUUCCUCGUGCAGCUGACAGCCACGGGAGAAGAAGGGACAUGAGGAUCACCCAUGUGAAUA [Eternabot (L2) Solution 47] (Eterna round: R97, puzzle: Exclusion 4) | 42 | 32.9 |  |  |  | 
17 | UUAAUGAUUGUGAGGAUAUUUCAUAGAUAGAUAUUAGAGAAGGUACAUGAGGAUCACCCAUGUGUGAUUAGAGA [Brourd's EX4 #71] (Eterna round: R97, puzzle: Brourd's mod of Exclusion 4) | 89.7 | 93.5 |  |  |  | 
18 | UGCGUGUGAGGAUAUGCGCGUGGCGAUCUUAAGUUACGCAAGCAGAAGGCACAUGAGGAUCACCCAUGUGGCCA [Eternabot (L1) Solution 20] (Eterna round: R97, puzzle: Exclusion 4) | 98.5 | 20.3 |  |  |  | 
19 | AGUACUAACACGAAAGUGUUAGUACCAUAAGCUUGUGAAACAUGAGGAUCACCCAUGUCCUCAUAAGCUCGUCUUAU [salish99_TOv2_r3_041] (puzzle: Sensor v3, turn-off variant 2) |  |  | 720 |  | 18.8 | 19.5
20 | AUAAUUAGUUCAGGAUAUCAGCACGUUUAGUGCUGAGAAGGGAACAUGAGGAUCACCCAUGUGAUCAAUAUUAUAAUUUUAAUU [ENG1/12-B2] (Eterna round: R96, puzzle: Exclusion NG 1) | 210 | 1100 |  | 754 |  | 
21 | UGUUGUUCAGGAUAUGAUGUAUUAUACAUGAGGAUCACCCAUGUGGGUCCUGAUUUGGCGUCAGAAGGGAAUGUUG [salish99_ex5_r4_110] (Eterna round: R97, puzzle: Exclusion 5) | 205 | 150 |  |  |  | 
22 | AGUGCGUAUGUGAGGAUAUGCUGGUCCUUGGCUCGGCAGAAGGCACAUGAGGAUCACCCAUGUGGUGUCGUACC [salish99_Bmod_ex4_059] (puzzle: Brourd's mod of Exclusion 4) |  |  | 25 |  |  | 
23 | ACGCAUUGCCUUUGGUAGUGCGUAACAUGAGGAUCACCCAUGUAGGAUAUGGUAGGCUUUGCUUACCAGAAGGACAUUAUAAAC [Mat - Exclusion NG 3 - Mod of JL - D9] (Eterna round: R96, puzzle: Exclusion NG 3) |  |  |  | 21.9 |  | 
24 | AAUAAUGAACGAGCUUUUUACAUGAGGAUCACCCAUGUCCUCUGCUCGUCUUGUCUUGGGCUUUUUUUGGGUUCGGG [-22.1, -44.7 kcal, A 17%] (Eterna round: R97, puzzle: Sensor, turn-off variant 1) | 331 | 338 |  |  |  | 
25 | AGUACUAUCACGAAAGUGAUAGUACAAAAUAACAAGUGAACAUGAGGAUCACCCAUGUCCUCAUUUGCUCGUCUUAU [Sensor 3 - 18] (puzzle: Sensor v3, turn-off variant 2) |  |  | 925 |  | 418 | 421
